Reference: patent US20160053025A1 (SAMSUNG ELECTRONICS, published 2016)
Positions count from the first letter of the chain named.

T1: recombinant hAng-2 (C-His, R&D Systems) (human, UniProt O15123 19-496)
T1 construct: Bought protein; also called human Ang-2 protein; C-terminal histidine-tagged human Ang2 (R&D Systems); not shown: C-terminal His tag
T1 sequence: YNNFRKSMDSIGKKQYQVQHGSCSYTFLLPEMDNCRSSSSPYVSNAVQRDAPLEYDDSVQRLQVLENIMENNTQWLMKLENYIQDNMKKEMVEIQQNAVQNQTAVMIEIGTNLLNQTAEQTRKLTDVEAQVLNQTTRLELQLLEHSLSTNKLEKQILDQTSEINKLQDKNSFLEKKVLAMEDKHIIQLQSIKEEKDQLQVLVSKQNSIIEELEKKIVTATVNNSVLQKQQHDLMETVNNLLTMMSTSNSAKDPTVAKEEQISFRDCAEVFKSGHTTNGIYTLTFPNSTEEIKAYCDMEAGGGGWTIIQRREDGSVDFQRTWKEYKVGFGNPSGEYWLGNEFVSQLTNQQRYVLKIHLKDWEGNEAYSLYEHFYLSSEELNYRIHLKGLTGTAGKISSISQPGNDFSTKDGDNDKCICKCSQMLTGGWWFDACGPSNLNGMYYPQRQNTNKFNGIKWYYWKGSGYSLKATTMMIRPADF

B1: FLAG-tagged hAng-2 (ligand)
chain: T1 sequence
notes: not shown: FLAG tag
B2: Ang2 protein (R&D systems) (ligand)
chain: T1 sequence
notes: Ang2 as used in the hybridoma screen, the HUVEC assays and the complex ELISA; also called human Ang2 protein; Human Ang-2 protein
B3: 4H10 (antibody, V domains shown)
VH: EVQLLESGGGLVQPGGSLRLSCAASGFTFSSYDMSWVRQAPGKGLEWVSLISPDSSSIYYADSVKGRFTISRDNSKNTLYLQMNSLRAEDTAVYYCAKDLISFWRGGFDYWGQGTLVTVSS
VL: QSVLTQPPSASGTPGQRVTISCSGSSSNIGSNYVNWYQQLPGTAPKLLIYADSNRPSGVPDRFSGSKSGTSASLAISGLRSEDEADYYCGSWDYSLSGYVFGGGTKLTVLG
notes: also called anti-Ang2 antibody 4H10
B4: h10D6-OPTI-1 (antibody, human IgG1, V domains shown)
VH: QVQLQESGPGLVKPSETLSLTCAVSGYSITSDYAWNWIRQPPGKGLEWMGKISYSGKTDYNPSLKSRSTISRDTSKNQFSLKLSSVTAADTAVYYCARGNFEGAMDYWGQGTLVTVSS
VL: DIQMTQSPSSLSASVGDRVTITCKASQSVSNDVAWYQQKPGKAPKLLIYYASNRYPGVPSRFSGSGSGTDFTLTISSLQPEDFATYYCQQDYSSPWTFGQGTKLEIK
B5: h10D6-OPTI-3 (antibody, human IgG1, V domains shown)
VH: EVQLVESGGGLVQPGGSLRLSCAASGYSITSDYAWNWVRQAPGKGLEWMGKISYSGKTDYNPSLKSRSTISRDTSKNTFYLQMNSLRAEDTAVYYCARGNFEGAMDYWGQGTLVTVSS
VL: B4 VL
B6: h10D6-OPTI-70 (antibody, human IgG1, V domains shown)
VH: B5 VH
VL: B4 VL with N53I, R54P
B7: h10D6-OPTI-4 (antibody, human IgG1, V domains shown)
VH: B5 VH with S53N, S55A, K57N
VL: B4 VL
B8: h10D6-OPTI-67 (antibody, human IgG1, V domains shown)
VH: B4 VH
VL: B4 VL with A34H, N53I, R54P
B9: h10D6-OPTI-65 (antibody, human IgG1, V domains shown)
VH: B4 VH
VL: B4 VL with N53I, R54P
B10: h10D6-OPTI-55 (antibody, human IgG1, V domains shown)
VH: B4 VH with S53N, S55A, K57N
VL: B4 VL with A34H
B11: h10D6-OPTI-2 (antibody, human IgG1, V domains shown)
VH: B4 VH with S53N, S55A, K57N
VL: B4 VL
B12: 10D6-HU1 (antibody, V domains shown)
VH: B4 VH with T30S, M49I, K51Y, S53N, K57N, S68V, R72V
VL: B4 VL
notes: Humanized antibody; also called humanized antibody 10D6-HU1
B13: h10D6-OPTI-42 (antibody, human IgG1, V domains shown)
VH: B4 VH with M49I, K51Y, S53N, K57N, S68V, R72V
VL: B4 VL with A34H, Q90H, W96F
B14: h10D6-OPTI-17 (antibody, human IgG1, V domains shown)
VH: B5 VH with S53N, S55A, K57N
VL: B4 VL with A34H
B15: 10D6-HU5 (antibody, V domains shown)
VH: B4 VH with M49I, K51Y, S53N, K57N, S68V, R72V
VL: B4 VL
notes: Humanized antibody; also called humanized antibody 10D6-HU5
B16: 10D6-HU2 (antibody, V domains shown)
VH: B4 VH with K51Y, S53N, K57N
VL: B4 VL
notes: Humanized antibody; also called humanized antibody 10D6-HU2
B17: h10D6-OPTI-68 (antibody, human IgG1, V domains shown)
VH: B5 VH
VL: B4 VL with S28F, N31T, A34H
B18: h10D6-OPTI-16 (antibody, human IgG1, V domains shown)
VH: B5 VH
VL: B4 VL with A34H
B19: h10D6-OPTI-63 (antibody, human IgG1, V domains shown)
VH: B4 VH
VL: B4 VL with S28F, N31T, A34H
B20: 10D6-HU3 (antibody, V domains shown)
VH: B5 VH with K51Y, S53N, K57N
VL: B4 VL
notes: Humanized antibody; also called humanized antibody 10D6-HU3
B21: h10D6-OPTI-43 (antibody, human IgG1, V domains shown)
VH: B4 VH
VL: B4 VL with A34H

What was measured:
BSA = biological target: T2, BSA (Bos taurus, UniProt P02769); assay: Complex ELISA: plate coated with BSA, FLAG-Ang2 0.25 ug/ml shown by 10D6 2 ug/ml and anti-mouse IgG-HRP, OD450
T2 construct: commercial preparation; also called Bovine serum albumin; Sigma
Method: (§1) A 96-well MaxiSorp™ flat-bottom plate (Nunc) was coated with 4 μg/ml of Tie2-Fc (R&D systems) or BSA (Sigma). Then, the plate was washed five times with 0.05% (v/v) Tween-20-containing PBS (Phosphate Buffer Saline) and blocked with 1% (v/v) BSA (Bovine serum albumin; Sigma)-containing PBS at a room temperature for 2 hours. 0.25 μg/ml of Ang2 and 2 μg/ml of 10D6 antibody were added to each well of the plate, which was allowed to react at a room temperature for 2 hours and then washed five times with PBST. After that, an anti-mouse IgG antibody (Sigma) conjugated with HRP diluted in 1% (v/v) BSA-containing PBS at a ratio of 1:5,000 (v/v) was added in an amount of 100 ul to each well to react at a room temperature for 1 hour and then, the plate was washed five times with PBST. Lastly, 100 ul (microliter) of TMB substrate (Cell Signaling) was added to each well of the plate to induce color development for 3 min. and then, the reaction was ceased by the addition of 100 ul of Stop solution (Cell Signaling) and OD450 values were measured on a plate reader (Molecular Devices).

hTie2-Fc (R&D Systems) = biological target: T3, hTie2-Fc (R&D Systems) (human, UniProt Q02763 23-745); assay: ELISA, Tie2-Fc coated, Ang2 and 10D6 added, detected with anti-mouse IgG-HRP
T3 construct: Bought fusion protein; also called hTie-2/Fc fusion protein; not shown: Fc of human IgG1
Method: as §1

FLAG-tagged hAng-2 = biological target: B1; assay: Ang2-Tie2 competition ELISA: plate coated with hTie2-Fc, 400 ng/ml FLAG-tagged hAng-2 with antibody at varied concentration, detection with anti-FLAG-HRP; blocked ligand/receptor: hTie2-Fc
Method: More specifically, MaxiSorp™ flat-bottom plate (Nunc) of 96-well was coated with hTie2-Fc (R&D Systems) which is a protein bound with 4 μg/ml of Fc of human IgG1. After that, the plate was washed five times with 0.05% (v/v) Tween-20-containing PBS (phosphate buffer saline) and then blocked with 1% (v/v) BSA (bovine serum albumin; Sigma)-containing PBS at a room temperature for 2 hour.
For Ang2:Tie2 competition ELISA, each anti-Ang2 antibody obtained in Example 2 was placed at various concentrations of 400 nM-0.001 nM into each well coated with the hTie-2/Fc fusion protein along with 1% (v/v) BSA and 400 ng/ml of a FLAG-tagged hAng-2 and then, the plate was allowed to react at a room temperature for 2 hours and washed five times with PBST. After that, an anti-FLAG antibody (Sigma) conjugated with HRP diluted in 1% (v/v) BSA-containing PBS at a ratio of 1:5,000 (v/v) was added in an amount of 100 μl to each well to react at a room temperature for 1 hour and then, the plate was washed five times with PBST. Lastly, 100 μl of TMB substrate (Cell Signaling) was added to each well of the plate to induce color development for 3 min. and then, the reaction was ceased by the addition of 100 μl of Stop solution (Cell Signaling) and OD450 values were measured on a plate reader (Molecular Devices). […]

[1] = biological target: T1, recombinant hAng-2 (C-His, R&D Systems); assay: SPR, BIAcore T100; hAng2 (C-His) captured by anti-His antibody on CM5, antibody as analyte
Method: The binding affinity (KD values) of the antibodies to human Ang2 protein was measured by an SPR method using a BIAcore T100 (GE Healthcare). 25 μg/ml anti-His antibody was immobilized on a CM5 sensor chip (GE healthcare) using a pH 5.0 acetate solution and an amine coupling kit (GE Healthcare). 6 μg/ml of a recombinant hAng2 (C-His, R&D Systems) protein was flowed onto the chip to be captured at 100 to 200 RU levels.

T3 sequence (Q02763 23-745 limits assumed): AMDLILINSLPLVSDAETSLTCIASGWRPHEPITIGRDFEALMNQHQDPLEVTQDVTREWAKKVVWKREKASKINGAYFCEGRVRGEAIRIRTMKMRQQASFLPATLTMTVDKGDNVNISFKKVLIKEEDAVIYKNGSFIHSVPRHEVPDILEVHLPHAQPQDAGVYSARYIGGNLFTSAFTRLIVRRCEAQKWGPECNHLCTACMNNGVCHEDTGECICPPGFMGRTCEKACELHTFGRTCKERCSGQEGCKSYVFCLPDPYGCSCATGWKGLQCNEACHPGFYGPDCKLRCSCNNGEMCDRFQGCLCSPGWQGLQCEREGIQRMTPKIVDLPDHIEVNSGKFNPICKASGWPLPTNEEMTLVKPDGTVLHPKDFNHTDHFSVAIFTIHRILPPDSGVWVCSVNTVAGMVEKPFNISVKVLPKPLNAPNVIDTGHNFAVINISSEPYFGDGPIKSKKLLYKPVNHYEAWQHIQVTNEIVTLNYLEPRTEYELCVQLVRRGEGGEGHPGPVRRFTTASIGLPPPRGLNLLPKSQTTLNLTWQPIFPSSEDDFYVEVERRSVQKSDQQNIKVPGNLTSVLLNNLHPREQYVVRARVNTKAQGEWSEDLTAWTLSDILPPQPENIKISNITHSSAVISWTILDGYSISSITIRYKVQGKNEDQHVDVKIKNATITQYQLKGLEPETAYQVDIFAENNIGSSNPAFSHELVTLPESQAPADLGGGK
T2 sequence (P02769 25-607 limits assumed): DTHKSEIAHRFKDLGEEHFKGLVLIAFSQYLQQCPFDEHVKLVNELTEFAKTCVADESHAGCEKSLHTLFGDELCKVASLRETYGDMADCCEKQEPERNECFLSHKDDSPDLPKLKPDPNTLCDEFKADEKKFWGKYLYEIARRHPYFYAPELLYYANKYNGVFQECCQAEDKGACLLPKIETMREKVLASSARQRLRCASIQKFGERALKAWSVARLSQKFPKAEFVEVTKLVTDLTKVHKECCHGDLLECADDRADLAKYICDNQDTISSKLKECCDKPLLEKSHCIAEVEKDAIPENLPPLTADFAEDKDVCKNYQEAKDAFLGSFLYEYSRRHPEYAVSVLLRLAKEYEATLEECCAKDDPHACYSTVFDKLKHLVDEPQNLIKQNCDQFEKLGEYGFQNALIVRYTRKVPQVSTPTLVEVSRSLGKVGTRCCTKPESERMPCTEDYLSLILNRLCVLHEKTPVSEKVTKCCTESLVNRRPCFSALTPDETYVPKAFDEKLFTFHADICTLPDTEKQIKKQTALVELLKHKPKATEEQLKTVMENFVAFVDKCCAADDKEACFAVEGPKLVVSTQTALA

Binder | binding result (BSA) | binding result (hTie2-Fc (R&D Systems)) | IC50 (read off the curve) (FLAG-tagged hAng-2) | Kd [1] | koff [1] | kon [1]
B1 | no binding (tested: 0.25 ug/ml) |  |  |  |  | 
B2 |  | binds |  |  |  | 
B3 |  |  | ~0.2 nM |  |  | 
B4 |  |  |  | 0.68 nM | 0.000321 s⁻¹ | 474000 M⁻¹ s⁻¹
B5 |  |  |  | 0.49 nM | 0.000307 s⁻¹ | 624000 M⁻¹ s⁻¹
B6 |  |  |  | 0.437 nM | 0.000116 s⁻¹ | 265000 M⁻¹ s⁻¹
B7 |  |  |  | 0.33 nM | 0.000246 s⁻¹ | 736000 M⁻¹ s⁻¹
B8 |  |  |  | 0.000129 nM | 2.68e-07 s⁻¹ | 2.08e+06 M⁻¹ s⁻¹
B9 |  |  |  |  | 2.25e-05 s⁻¹ | 
B10 |  |  |  | 0.14 nM | 8.49e-05 s⁻¹ | 621000 M⁻¹ s⁻¹
B11 |  |  |  | 0.34 nM | 0.000149 s⁻¹ | 424000 M⁻¹ s⁻¹
B12 |  |  |  | 84 nM | 0.0026 s⁻¹ | 30800 M⁻¹ s⁻¹
B13 |  |  |  | 0.85 nM | 0.000286 s⁻¹ | 336000 M⁻¹ s⁻¹
B14 |  |  |  | 0.76 nM | 0.00035 s⁻¹ | 460000 M⁻¹ s⁻¹
B15 |  |  |  | 64 nM | 0.00312 s⁻¹ | 48600 M⁻¹ s⁻¹
B16 |  |  |  | 47 nM | 0.00346 s⁻¹ | 73000 M⁻¹ s⁻¹
B17 |  |  |  | 0.317 nM | 0.00017 s⁻¹ | 536000 M⁻¹ s⁻¹
B18 |  |  |  | 0.92 nM | 0.000443 s⁻¹ | 479000 M⁻¹ s⁻¹
B19 |  |  |  | 0.0277 nM | 7.42e-05 s⁻¹ | 2.68e+06 M⁻¹ s⁻¹
B20 |  |  |  | 43 nM | 0.00194 s⁻¹ | 45000 M⁻¹ s⁻¹
B21 |  |  |  | 0.38 nM | 0.000576 s⁻¹ | 1.53e+06 M⁻¹ s⁻¹
